From patent publication US20250154231A1
Like-named read-outs stand apart in the source and are kept apart here.

Columns and labels:
Assay in all cases: cell-based or functional assay
[1] = target: SARS-CoV-2 spike (S) protein, Omicron BA.2.75 (SARS-CoV-2) (UniProt P0DTC2)
[2] = target: SARS-CoV-2 spike (S) protein, Omicron BA.2 (SARS-CoV-2) (UniProt P0DTC2)
[3] = target: SARS-CoV-2 spike (S) protein, Omicron BA.2.75.2 (SARS-CoV-2) (UniProt P0DTC2)
[4] = target: SARS-CoV-2 spike (S) protein, Omicron BA.4.6 (SARS-CoV-2) (UniProt P0DTC2)
[5] = target: SARS-CoV-2 spike (S) protein, Omicron BJ.1 (SARS-CoV-2) (UniProt P0DTC2)
[6] = target: SARS-CoV-2 spike (S) protein, Omicron BA.2.75 (SARS-CoV-2) (UniProt P0DTC2); remark: listed apart in the source
[7] = target: SARS-CoV-2 spike (S) protein, Omicron BA.2.3.20 (SARS-CoV-2) (UniProt P0DTC2)
[8] = target: SARS-CoV-2 spike (S) protein, Omicron BA.4/5 (SARS-CoV-2) (UniProt P0DTC2)
[9] = target: SARS-CoV-2 spike (S) protein, Victoria strain (SARS-CoV-2) (UniProt P0DTC2)
[10] = target: SARS-CoV-2 spike (S) protein, Omicron BA.2 (SARS-CoV-2) (UniProt P0DTC2); remark: listed apart in the source
[11] = target: SARS-CoV-2 Alpha spike (S) protein (SARS-CoV-2) (UniProt P0DTC2)
[12] = target: SARS-CoV-2 Omicron BA.1.1 spike (S) protein (SARS-CoV-2) (UniProt P0DTC2)
[13] = target: SARS-CoV-2 Omicron (BA.1) spike (S) protein, live virus isolate (SARS-CoV-2) (UniProt P0DTC2)
[14] = target: SARS-CoV-2 spike (S) protein, Omicron BA.1 (SARS-CoV-2) (UniProt P0DTC2)
[15] = target: SARS-CoV-2 Delta spike (S) protein (SARS-CoV-2) (UniProt P0DTC2)
[16] = target: SARS-CoV-2 Omicron BA.1 spike (S) protein of the live isolate (SARS-CoV-2) (UniProt P0DTC2)
[17] = target: SARS-CoV-2 Omicron BA.1 spike (S) protein of the pseudovirus (SARS-CoV-2) (UniProt P0DTC2)
[18] = target: SARS-CoV-2 Omicron BA.1 spike (S) protein, pseudovirus construct (SARS-CoV-2) (UniProt P0DTC2)
[19] = target: SARS-CoV-2 Omicron BA.2 spike (S) protein, pseudovirus construct (SARS-CoV-2) (UniProt P0DTC2)
[20] = target: SARS-CoV-2 Omicron BA.2 spike (S) protein (SARS-CoV-2) (UniProt P0DTC2)
[21] = target: SARS-CoV-2 Omicron BA.1.1 spike (S) protein, pseudovirus construct (SARS-CoV-2) (UniProt P0DTC2)
[22] = target: SARS-CoV-2 Omicron BA.4/5 spike (S) protein (SARS-CoV-2) (UniProt P0DTC2)
[23] = target: SARS-CoV-2 Victoria spike (S) protein (SARS-CoV-2) (UniProt P0DTC2)
[24] = target: SARS-CoV-2 spike (S) protein, Omicron BA.2.75 (SARS-CoV-2) (UniProt P0DTC2); remark: listed apart in the source
[25] = target: SARS-CoV-2 spike (S) protein, Omicron BA.1.1 (SARS-CoV-2) (UniProt P0DTC2)
[26] = target: SARS-CoV-2 spike (S) protein, Omicron BA.4/5 (SARS-CoV-2) (UniProt P0DTC2); remark: listed apart in the source
[27] = target: SARS-CoV-2 Alpha (B.1.1.7) spike (S) protein (SARS-CoV-2) (UniProt P0DTC2)
[28] = target: SARS-CoV-2 spike (S) protein, Omicron BA.3 (SARS-CoV-2) (UniProt P0DTC2)
[29] = target: SARS-CoV-2 spike (S) protein, Victoria strain (SARS-CoV-2) (UniProt P0DTC2); remark: listed apart in the source
[30] = target: SARS-CoV-2 Beta spike (S) protein (SARS-CoV-2) (UniProt P0DTC2)
[31] = target: SARS-CoV-2 Gamma spike (S) protein (SARS-CoV-2) (UniProt P0DTC2)
[32] = target: SARS-CoV-2 Beta (B.1.351) spike (S) protein (SARS-CoV-2) (UniProt P0DTC2)
[33] = target: SARS-CoV-2 Omicron BA.3 spike (S) protein (SARS-CoV-2) (UniProt P0DTC2)
[34] = target: SARS-CoV-2 spike (S) protein, Omicron BA.2 (SARS-CoV-2) (UniProt P0DTC2); remark: listed apart in the source
[35] = target: SARS-CoV-2 Omicron BA.3 spike (S) protein, pseudovirus construct (SARS-CoV-2) (UniProt P0DTC2)
[36] = target: SARS-CoV-2 Gamma (P.1) spike (S) protein (SARS-CoV-2) (UniProt P0DTC2)

Sequence of Omi-18 (antibody) (VH): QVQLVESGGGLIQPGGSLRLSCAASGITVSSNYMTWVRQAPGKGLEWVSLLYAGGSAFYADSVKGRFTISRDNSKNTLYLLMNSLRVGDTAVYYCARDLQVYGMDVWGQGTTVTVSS
Sequence of Omi-18 (antibody) (VL): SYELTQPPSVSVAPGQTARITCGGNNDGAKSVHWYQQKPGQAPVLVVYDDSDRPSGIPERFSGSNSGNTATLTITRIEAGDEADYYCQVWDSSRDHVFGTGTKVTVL
Sequence of Omi-29 (antibody) (VH): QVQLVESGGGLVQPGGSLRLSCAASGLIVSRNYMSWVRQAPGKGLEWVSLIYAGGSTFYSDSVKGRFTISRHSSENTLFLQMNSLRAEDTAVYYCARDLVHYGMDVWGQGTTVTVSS
Sequence of Omi-29 (antibody) (VL): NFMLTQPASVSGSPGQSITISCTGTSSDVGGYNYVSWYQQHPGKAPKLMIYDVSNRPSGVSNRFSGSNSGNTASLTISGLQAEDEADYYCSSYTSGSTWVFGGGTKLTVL
Sequence of Omi-12 (antibody) (VH): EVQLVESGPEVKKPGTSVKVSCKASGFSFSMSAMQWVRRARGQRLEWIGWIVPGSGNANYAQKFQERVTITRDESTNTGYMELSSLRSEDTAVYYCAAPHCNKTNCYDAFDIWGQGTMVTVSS
Sequence of Omi-12 (antibody) (VL): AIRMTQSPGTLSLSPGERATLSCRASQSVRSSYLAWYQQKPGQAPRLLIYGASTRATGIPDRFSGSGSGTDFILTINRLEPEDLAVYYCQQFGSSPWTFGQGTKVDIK

## Omi-03 (antibody)
[1]
  pseudovirus neutralisation IC50: 17 ng/mL
[2]
  pseudovirus neutralisation IC50: 8 ng/mL
[3]
  IC50, pseudoviral neutralization: 546 ng/mL
[4]
  IC50, pseudoviral neutralization: 6 ng/mL
[5]
  IC50, pseudoviral neutralization: 14 ng/mL
[6]
  IC50, pseudoviral neutralization: 17 ng/mL
[7]
  IC50, pseudoviral neutralization: 20 ng/mL
[8]
  IC50, pseudoviral neutralization: 17 ng/mL
[9]
  IC50, pseudoviral neutralization: 3 ng/mL
[10]
  IC50, pseudoviral neutralization: 8 ng/mL
[11]
  IC50, authentic virus neutralization: 12 ng/mL
[12]
  IC50, authentic virus neutralization: 15 ng/mL
  IC50, pseudovirus neutralization: 3 ng/mL
[13]
  Authentic virus-IC50: 9 ng/mL
[14]
  pseudovirus neutralisation IC50: 5 ng/mL
[15]
  Authentic virus-IC50: 4 ng/mL
  IC50, authentic virus neutralization: 4 ng/mL
[16]
  IC50, authentic virus neutralization: 9 ng/mL
[17]
  IC50, pseudovirus neutralization: 5 ng/mL
[18]
  Pseudovirus - IC50: 5 ng/mL
[19]
  Pseudovirus - IC50: 8 ng/mL
[20]
  IC50, authentic virus neutralization: 28 ng/mL
  IC50, pseudovirus neutralization: 8 ng/mL
[21]
  Pseudovirus - IC50: 3 ng/mL
[22]
  IC50, pseudovirus neutralization: 17 ng/mL
[23]
  Authentic virus-IC50: 7 ng/mL
  IC50, authentic virus neutralization: 7 ng/mL
  IC50, pseudovirus neutralization: 3 ng/mL
  Pseudovirus - IC50: 3 ng/mL
[24]
  pseudovirus neutralisation IC50: 17 ng/mL
[25]
  pseudovirus neutralisation IC50: 3 ng/mL
[26]
  pseudovirus neutralisation IC50: 17 ng/mL
[27]
  Authentic virus-IC50: 12 ng/mL
[28]
  pseudovirus neutralisation IC50: 22 ng/mL
[29]
  pseudovirus neutralisation IC50: 3 ng/mL
[30]
  IC50, authentic virus neutralization: 9 ng/mL
[31]
  IC50, authentic virus neutralization: 4 ng/mL
[32]
  Authentic virus-IC50: 9 ng/mL
[33]
  IC50, pseudovirus neutralization: 22 ng/mL
[34]
  pseudovirus neutralisation IC50: 8 ng/mL
[35]
  Pseudovirus - IC50: 22 ng/mL
[36]
  Authentic virus-IC50: 4 ng/mL

## Omi-12 (antibody)
[1]
  pseudovirus neutralisation IC50: 3 ng/mL
[2]
  pseudovirus neutralisation IC50: 3 ng/mL
[3]
  IC50, pseudoviral neutralization: > 10000 ng/mL
[4]
  IC50, pseudoviral neutralization: 74 ng/mL
[5]
  IC50, pseudoviral neutralization: 4 ng/mL
[6]
  IC50, pseudoviral neutralization: 3 ng/mL
[7]
  IC50, pseudoviral neutralization: 8 ng/mL
[8]
  IC50, pseudoviral neutralization: 429 ng/mL
[9]
  IC50, pseudoviral neutralization: 6 ng/mL
[10]
  IC50, pseudoviral neutralization: 3 ng/mL
[11]
  IC50, authentic virus neutralization: 3 ng/mL
[12]
  IC50, authentic virus neutralization: 9 ng/mL
  IC50, pseudovirus neutralization: 2 ng/mL
[13]
  Authentic virus-IC50: 4 ng/mL
[14]
  pseudovirus neutralisation IC50: 2 ng/mL
[15]
  Authentic virus-IC50: 3 ng/mL
  IC50, authentic virus neutralization: 3 ng/mL
[16]
  IC50, authentic virus neutralization: 4 ng/mL
[17]
  IC50, pseudovirus neutralization: 2 ng/mL
[18]
  Pseudovirus - IC50: 2 ng/mL
[19]
  Pseudovirus - IC50: 3 ng/mL
[20]
  IC50, authentic virus neutralization: 10 ng/mL
  IC50, pseudovirus neutralization: 3 ng/mL
[21]
  Pseudovirus - IC50: 2 ng/mL
[22]
  IC50, pseudovirus neutralization: 429 ng/mL
[23]
  Authentic virus-IC50: 5 ng/mL
  IC50, authentic virus neutralization: 5 ng/mL
  IC50, pseudovirus neutralization: 6 ng/mL
  Pseudovirus - IC50: 6 ng/mL
[24]
  pseudovirus neutralisation IC50: 3 ng/mL
[25]
  pseudovirus neutralisation IC50: 2 ng/mL
[26]
  pseudovirus neutralisation IC50: 429 ng/mL
[27]
  Authentic virus-IC50: 3 ng/mL
[28]
  pseudovirus neutralisation IC50: 6 ng/mL
[29]
  pseudovirus neutralisation IC50: 6 ng/mL
[30]
  IC50, authentic virus neutralization: 6 ng/mL
[31]
  IC50, authentic virus neutralization: 3 ng/mL
[32]
  Authentic virus-IC50: 6 ng/mL
[33]
  IC50, pseudovirus neutralization: 6 ng/mL
[34]
  pseudovirus neutralisation IC50: 3 ng/mL
[35]
  Pseudovirus - IC50: 6 ng/mL
[36]
  Authentic virus-IC50: 3 ng/mL

## Omi-18 (antibody)
[1]
  pseudovirus neutralisation IC50: 35 ng/mL
[2]
  pseudovirus neutralisation IC50: 5 ng/mL
[3]
  IC50, pseudoviral neutralization: 4800 ng/mL
[4]
  IC50, pseudoviral neutralization: 6 ng/mL
[5]
  IC50, pseudoviral neutralization: 5 ng/mL
[6]
  IC50, pseudoviral neutralization: 35 ng/mL
[7]
  IC50, pseudoviral neutralization: 11 ng/mL
[8]
  IC50, pseudoviral neutralization: 5 ng/mL
[9]
  IC50, pseudoviral neutralization: 8 ng/mL
[10]
  IC50, pseudoviral neutralization: 5 ng/mL
[11]
  IC50, authentic virus neutralization: 38 ng/mL
[12]
  IC50, authentic virus neutralization: 6 ng/mL
  IC50, pseudovirus neutralization: 2 ng/mL
[13]
  Authentic virus-IC50: 6 ng/mL
[14]
  pseudovirus neutralisation IC50: 2 ng/mL
[15]
  Authentic virus-IC50: 25 ng/mL
  IC50, authentic virus neutralization: 25 ng/mL
[16]
  IC50, authentic virus neutralization: 6 ng/mL
[17]
  IC50, pseudovirus neutralization: 2 ng/mL
[18]
  Pseudovirus - IC50: 2 ng/mL
[19]
  Pseudovirus - IC50: 5 ng/mL
[20]
  IC50, authentic virus neutralization: 7 ng/mL
  IC50, pseudovirus neutralization: 5 ng/mL
[21]
  Pseudovirus - IC50: 2 ng/mL
[22]
  IC50, pseudovirus neutralization: 5 ng/mL
[23]
  Authentic virus-IC50: 41 ng/mL
  IC50, authentic virus neutralization: 41 ng/mL
  IC50, pseudovirus neutralization: 8 ng/mL
  Pseudovirus - IC50: 8 ng/mL
[24]
  pseudovirus neutralisation IC50: 35 ng/mL
[25]
  pseudovirus neutralisation IC50: 2 ng/mL
[26]
  pseudovirus neutralisation IC50: 5 ng/mL
[27]
  Authentic virus-IC50: 38 ng/mL
[28]
  pseudovirus neutralisation IC50: 6 ng/mL
[29]
  pseudovirus neutralisation IC50: 8 ng/mL
[30]
  IC50, authentic virus neutralization: 18 ng/mL
[31]
  IC50, authentic virus neutralization: 16 ng/mL
[32]
  Authentic virus-IC50: 18 ng/mL
[33]
  IC50, pseudovirus neutralization: 6 ng/mL
[34]
  pseudovirus neutralisation IC50: 5 ng/mL
[35]
  Pseudovirus - IC50: 6 ng/mL
[36]
  Authentic virus-IC50: 16 ng/mL

## Omi-29 (antibody)
[1]
  pseudovirus neutralisation IC50: > 10000 ng/mL
[2]
  pseudovirus neutralisation IC50: 56 ng/mL
[3]
  IC50, pseudoviral neutralization: > 10000 ng/mL
[4]
  IC50, pseudoviral neutralization: 170 ng/mL
[5]
  IC50, pseudoviral neutralization: 25 ng/mL
[6]
  IC50, pseudoviral neutralization: > 10000 ng/mL
[7]
  IC50, pseudoviral neutralization: > 10000 ng/mL
[8]
  IC50, pseudoviral neutralization: 396 ng/mL
[9]
  IC50, pseudoviral neutralization: 14 ng/mL
[10]
  IC50, pseudoviral neutralization: 56 ng/mL
[11]
  IC50, authentic virus neutralization: 66 ng/mL
[12]
  IC50, authentic virus neutralization: 52 ng/mL
  IC50, pseudovirus neutralization: 16 ng/mL
[13]
  Authentic virus-IC50: 36 ng/mL
[14]
  pseudovirus neutralisation IC50: 17 ng/mL
[15]
  Authentic virus-IC50: 29 ng/mL
  IC50, authentic virus neutralization: 29 ng/mL
[16]
  IC50, authentic virus neutralization: 36 ng/mL
[17]
  IC50, pseudovirus neutralization: 17 ng/mL
[18]
  Pseudovirus - IC50: 17 ng/mL
[19]
  Pseudovirus - IC50: 56 ng/mL
[20]
  IC50, authentic virus neutralization: 192 ng/mL
  IC50, pseudovirus neutralization: 56 ng/mL
[21]
  Pseudovirus - IC50: 16 ng/mL
[22]
  IC50, pseudovirus neutralization: 396 ng/mL
[23]
  Authentic virus-IC50: 44 ng/mL
  IC50, authentic virus neutralization: 44 ng/mL
  IC50, pseudovirus neutralization: 14 ng/mL
  Pseudovirus - IC50: 14 ng/mL
[24]
  pseudovirus neutralisation IC50: > 10000 ng/mL
[25]
  pseudovirus neutralisation IC50: 16 ng/mL
[26]
  pseudovirus neutralisation IC50: 396 ng/mL
[27]
  Authentic virus-IC50: 66 ng/mL
[28]
  pseudovirus neutralisation IC50: 64 ng/mL
[29]
  pseudovirus neutralisation IC50: 14 ng/mL
[30]
  IC50, authentic virus neutralization: 48 ng/mL
[31]
  IC50, authentic virus neutralization: 40 ng/mL
[32]
  Authentic virus-IC50: 48 ng/mL
[33]
  IC50, pseudovirus neutralization: 64 ng/mL
[34]
  pseudovirus neutralisation IC50: 56 ng/mL
[35]
  Pseudovirus - IC50: 64 ng/mL
[36]
  Authentic virus-IC50: 40 ng/mL
